This series deals with Escherichia coli TOP10. Kind of series: shrunken log2 fold change of peptide-encoding DNA abundance (4.5 h post-induction vs induction); higher = less antimicrobial activity (less host growth inhibition). Conditions: time post-induction: 4.5 h; library: site-saturation at positions 5, 18, 19, 20.
Regarding RRIRTRPPRLPRPRPRPDLSPRP, the “shrunken log2 fold change” value came out at 0.057.
As to RRIRGRPPRLPRPRPRPKKPPRP, the “shrunken log2 fold change” value is -0.0158.
With RRIRKRPPRLPRPRPRPPRRPRP the figure was 1.04; with RRIRPRPPRLPRPRPRPQRAPRP, 0.381; with RRIRKRPPRLPRPRPRPSRQPRP, 0.192.
Consider RRIRVRPPRLPRPRPRPQMVPRP, for which the “shrunken log2 fold change” value amounted to 0.0123.
For RRIRERPPRLPRPRPRPQLMPRP, the “shrunken log2 fold change” value was -0.0865.
For the sequence RRIRTRPPRLPRPRPRPYCVPRP, the “shrunken log2 fold change” value was -0.142.
Regarding RRIRPRPPRLPRPRPRPTASPRP, the “shrunken log2 fold change” value was found to be 0.259.
RRIRARPPRLPRPRPRPISIPRP: the “shrunken log2 fold change” value was -0.439.
Take RRIRMRPPRLPRPRPRPRTNPRP: the “shrunken log2 fold change” value worked out at 0.295.
For RRIRLRPPRLPRPRPRPECCPRP, the “shrunken log2 fold change” value stood at 0.338.
To RRIRHRPPRLPRPRPRPVEMPRP belongs -0.0679.
With RRIRLRPPRLPRPRPRPWCSPRP the figure was -1.02; with RRIRDRPPRLPRPRPRPVFGPRP, 0.342.
To RRIRPRPPRLPRPRPRPFHQPRP belongs -0.216; to RRIRNRPPRLPRPRPRPWAYPRP, -0.0322; to RRIRRRPPRLPRPRPRPQKTPRP, -0.019.
For RRIRQRPPRLPRPRPRPDRVPRP, the “shrunken log2 fold change” value was 0.00438.
To RRIRERPPRLPRPRPRPKTIPRP belongs -0.232; to RRIRRRPPRLPRPRPRPRQLPRP, 0.394.
With RRIRPRPPRLPRPRPRPPGHPRP the figure was 0.371; with RRIRWRPPRLPRPRPRPWFEPRP, -0.0354.
For RRIRARPPRLPRPRPRPCRKPRP, the “shrunken log2 fold change” value was -0.232.
With RRIRFRPPRLPRPRPRPQGDPRP the figure was 0.014.
Turning to RRIRNRPPRLPRPRPRPGSNPRP, the “shrunken log2 fold change” value is -0.0081.
Take RRIRVRPPRLPRPRPRPAPNPRP: the “shrunken log2 fold change” value worked out at 0.334.
With RRIRLRPPRLPRPRPRPCMYPRP the figure was -0.674; with RRIRFRPPRLPRPRPRPMRWPRP, 0.264; with RRIRSRPPRLPRPRPRPSKFPRP, -0.779.
RRIRWRPPRLPRPRPRPKPNPRP: the “shrunken log2 fold change” value is 0.367.
Take RRIRARPPRLPRPRPRPRCMPRP: the “shrunken log2 fold change” value was found to be 1.62.
With RRIRDRPPRLPRPRPRPVKIPRP the figure was -0.101; with RRIRSRPPRLPRPRPRPQSHPRP, -0.216.
For RRIRTRPPRLPRPRPRPYCDPRP, the “shrunken log2 fold change” value was -0.512.
Regarding RRIRSRPPRLPRPRPRPYDTPRP, the “shrunken log2 fold change” value was -0.532.
Turning to RRIRVRPPRLPRPRPRPNDCPRP, the “shrunken log2 fold change” value is -0.2.
With RRIRPRPPRLPRPRPRPDHQPRP, the “shrunken log2 fold change” value was -0.0869.
To RRIRVRPPRLPRPRPRPQYGPRP belongs -0.0699; to RRIRPRPPRLPRPRPRPSWCPRP, 0.108; to RRIRGRPPRLPRPRPRPVEAPRP, 0.997.
As for RRIRPRPPRLPRPRPRPKRSPRP, the “shrunken log2 fold change” value came out at 0.0941.
With RRIRSRPPRLPRPRPRPKVPPRP the figure was 0.0195.
Consider RRIRNRPPRLPRPRPRPFIYPRP, for which the “shrunken log2 fold change” value was -0.856.
Take RRIRPRPPRLPRPRPRPCKWPRP: the “shrunken log2 fold change” value was -0.32.
To RRIRLRPPRLPRPRPRPDANPRP belongs 0.0586.
With RRIRLRPPRLPRPRPRPKNCPRP the figure was -0.5; with RRIRWRPPRLPRPRPRPTAKPRP, 0.0717; with RRIRMRPPRLPRPRPRPNPSPRP, 0.758.
To RRIRQRPPRLPRPRPRPFRYPRP belongs -0.245.
Regarding RRIRQRPPRLPRPRPRPYCTPRP, the “shrunken log2 fold change” value is -0.863.
To RRIRFRPPRLPRPRPRPNLCPRP belongs 0.00999; to RRIRTRPPRLPRPRPRPIRTPRP, 0.063; to RRIRWRPPRLPRPRPRPESNPRP, 0.535.
With RRIRSRPPRLPRPRPRPGDGPRP the figure was 0.78.
With RRIRLRPPRLPRPRPRPYEQPRP the figure was -0.104; with RRIRMRPPRLPRPRPRPFIRPRP, -0.47; with RRIRIRPPRLPRPRPRPRRMPRP, -0.12.
As to RRIRRRPPRLPRPRPRPQSVPRP, the “shrunken log2 fold change” value is -0.0146.
To RRIRKRPPRLPRPRPRPPRSPRP belongs 2.69; to RRIRLRPPRLPRPRPRPRKHPRP, -0.0984; to RRIRMRPPRLPRPRPRPWIMPRP, 0.00173.
To RRIRQRPPRLPRPRPRPVNAPRP belongs 0.00432; to RRIRYRPPRLPRPRPRPWDVPRP, -0.114.
To RRIRPRPPRLPRPRPRPDNGPRP belongs -0.332; to RRIRTRPPRLPRPRPRPLNVPRP, -0.0675.
RRIRMRPPRLPRPRPRPNLFPRP: the “shrunken log2 fold change” value is 0.124.
With RRIRCRPPRLPRPRPRPNRGPRP, the “shrunken log2 fold change” value was -0.00554.
Take RRIRCRPPRLPRPRPRPGDKPRP: the “shrunken log2 fold change” value was -0.441.
To RRIRMRPPRLPRPRPRPFYYPRP belongs -0.527.
Regarding RRIRIRPPRLPRPRPRPEIDPRP, the “shrunken log2 fold change” value is -0.157.
Consider RRIRQRPPRLPRPRPRPLPSPRP, for which the “shrunken log2 fold change” value was -0.0393.
With RRIRFRPPRLPRPRPRPKGVPRP, the “shrunken log2 fold change” value came to 0.0142.
With RRIRERPPRLPRPRPRPQKTPRP the figure was -0.0465; with RRIRPRPPRLPRPRPRPHLYPRP, -0.192.
To RRIRCRPPRLPRPRPRPSGMPRP belongs -0.35.
On to RRIRQRPPRLPRPRPRPKRNPRP, for which the “shrunken log2 fold change” value amounted to 0.29.
With RRIRSRPPRLPRPRPRPAHDPRP the figure was 0.162.
Take RRIRGRPPRLPRPRPRPYDLPRP: the “shrunken log2 fold change” value was -0.511.
With RRIRARPPRLPRPRPRPIGWPRP the figure was 0.488; with RRIRKRPPRLPRPRPRPLDPPRP, 0.613; with RRIRNRPPRLPRPRPRPNREPRP, 0.00564.
For RRIRKRPPRLPRPRPRPGREPRP, the “shrunken log2 fold change” value was found to be 0.913.
With RRIRTRPPRLPRPRPRPAASPRP the figure was 0.169; with RRIRVRPPRLPRPRPRPHQHPRP, -0.189; with RRIRERPPRLPRPRPRPSNCPRP, -0.0637.
With RRIRERPPRLPRPRPRPWIPPRP the figure was 0.0136.
To RRIRFRPPRLPRPRPRPDLVPRP belongs -0.0465.
In the case of RRIRNRPPRLPRPRPRPDGDPRP, the “shrunken log2 fold change” value is -0.194.
On to RRIRYRPPRLPRPRPRPAESPRP, for which the “shrunken log2 fold change” value is -0.00136.
To RRIRLRPPRLPRPRPRPRCHPRP belongs -0.277; to RRIRMRPPRLPRPRPRPQKHPRP, 0.159.
To RRIRCRPPRLPRPRPRPIRPPRP belongs -0.0704; to RRIRFRPPRLPRPRPRPIGGPRP, 0.14; to RRIRGRPPRLPRPRPRPATWPRP, 0.565.
RRIRRRPPRLPRPRPRPIEAPRP: the “shrunken log2 fold change” value was -0.137.
With RRIRGRPPRLPRPRPRPKIFPRP, the “shrunken log2 fold change” value was determined as 0.288.
As to RRIRMRPPRLPRPRPRPHVHPRP, the “shrunken log2 fold change” value was 0.0308.
RRIRCRPPRLPRPRPRPCWKPRP: the “shrunken log2 fold change” value is -0.174.
For the sequence RRIRFRPPRLPRPRPRPNNFPRP, the “shrunken log2 fold change” value was -0.383.
To RRIRHRPPRLPRPRPRPCYSPRP belongs -0.0983.
In the case of RRIRFRPPRLPRPRPRPEKDPRP, the “shrunken log2 fold change” value was -0.227.
In the case of RRIRQRPPRLPRPRPRPTYNPRP, the “shrunken log2 fold change” value is -0.591.
To RRIRKRPPRLPRPRPRPTPQPRP belongs 0.896; to RRIRNRPPRLPRPRPRPQLVPRP, -0.0147; to RRIRTRPPRLPRPRPRPLGDPRP, -0.109.
On to RRIRARPPRLPRPRPRPRAFPRP, for which the “shrunken log2 fold change” value was found to be 0.398.
With RRIRCRPPRLPRPRPRPGSIPRP the figure was -0.311; with RRIRSRPPRLPRPRPRPAMYPRP, -0.184; with RRIRKRPPRLPRPRPRPNVHPRP, 0.273.
With RRIRNRPPRLPRPRPRPRQSPRP the figure was 0.112.
RRIRTRPPRLPRPRPRPKKRPRP: the “shrunken log2 fold change” value was determined as 0.0216.
To RRIRPRPPRLPRPRPRPDCTPRP belongs -0.167; to RRIRIRPPRLPRPRPRPFDKPRP, -0.177.
To RRIRSRPPRLPRPRPRPWTDPRP belongs -0.12; to RRIRKRPPRLPRPRPRPQEGPRP, -0.00136.
For the sequence RRIRIRPPRLPRPRPRPTKRPRP, the “shrunken log2 fold change” value was -0.0508.
Regarding RRIRHRPPRLPRPRPRPHCKPRP, the “shrunken log2 fold change” value is -0.0178.
With RRIRNRPPRLPRPRPRPQIGPRP the figure was 0.0326; with RRIRNRPPRLPRPRPRPDYCPRP, -0.00677.
To RRIRCRPPRLPRPRPRPQHWPRP belongs 0.102.
As for RRIRDRPPRLPRPRPRPKHQPRP, the “shrunken log2 fold change” value worked out at 0.0157.
To RRIRCRPPRLPRPRPRPGFDPRP belongs 0.104.
With RRIRDRPPRLPRPRPRPFWYPRP the figure was -0.167; with RRIRLRPPRLPRPRPRPMCCPRP, -0.394.
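Also: peptides expressed intracellularly from a pBAD plasmid library in pooled LB shake-flask culture, induced with 0.3% L-arabinose, DNA abundance read by NGS, three biological replicates, DESeq2 with apeglm shrinkage.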
